According to US20240084003A1 (SIMCERE ZAIMING PHARMACEUTICAL, published 2024):

T1: monkey CD22 on HEK293T-monkey CD22 cells (monkey)
T1 construct: full-length entry expressed on stably transfected HEK293T cells
T1 chain: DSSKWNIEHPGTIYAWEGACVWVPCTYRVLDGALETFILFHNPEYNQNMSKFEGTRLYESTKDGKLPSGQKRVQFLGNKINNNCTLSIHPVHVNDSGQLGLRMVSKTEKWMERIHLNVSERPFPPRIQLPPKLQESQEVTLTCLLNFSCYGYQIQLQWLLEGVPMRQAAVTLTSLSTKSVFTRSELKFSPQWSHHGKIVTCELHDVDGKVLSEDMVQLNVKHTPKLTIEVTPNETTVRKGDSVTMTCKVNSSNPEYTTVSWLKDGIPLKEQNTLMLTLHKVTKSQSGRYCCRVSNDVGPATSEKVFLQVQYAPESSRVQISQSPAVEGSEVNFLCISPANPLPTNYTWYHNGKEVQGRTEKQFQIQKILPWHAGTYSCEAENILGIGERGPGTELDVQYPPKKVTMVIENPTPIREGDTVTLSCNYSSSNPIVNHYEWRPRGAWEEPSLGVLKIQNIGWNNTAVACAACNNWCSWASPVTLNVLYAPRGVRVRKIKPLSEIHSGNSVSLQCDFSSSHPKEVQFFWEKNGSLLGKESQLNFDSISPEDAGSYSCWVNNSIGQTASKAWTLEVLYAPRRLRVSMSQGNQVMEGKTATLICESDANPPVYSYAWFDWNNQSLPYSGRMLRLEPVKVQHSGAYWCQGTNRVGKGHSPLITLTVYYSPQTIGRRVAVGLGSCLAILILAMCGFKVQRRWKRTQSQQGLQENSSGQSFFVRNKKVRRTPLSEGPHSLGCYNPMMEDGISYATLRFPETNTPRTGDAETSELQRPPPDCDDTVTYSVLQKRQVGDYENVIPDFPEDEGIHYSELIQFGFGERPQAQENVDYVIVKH


Molecular target: T1, monkey CD22 on HEK293T-monkey CD22 cells
Experiment: FACS, HEK293T-monkey CD22 cells
Procedure: For suspension cell Raji, the medium supernatant was directly centrifuged and discarded, and the cell pellet was washed 2 times with PBS. After counting the cells in the previous step, the cell pellet was resuspended with [PBS+2% (w/w) BSA] blocking solution to 2×10⁶ cells/ml, and added to a 96-well FACS reaction plate at 50 μl/well, and then the chimeric antibody test sample was added at 50 μl/well, and incubated on ice for 2 hours. The mixture was centrifuged and washed 3 times with PBS buffer, Alexa Flour 488-labeled secondary antibody (purchased from Invitrogen, catalog number: A-11013) was added at 50 μl/well, and incubated on ice for 1 hour. The obtained mixture was centrifuged and washed 5 times with PBS, and FACS (FACS Canto™, purchased from BD Company) was used for detection and result analysis. Data analysis was performed by software (CellQuest) to obtain the mean fluorescence density (MFI)of the cells. And then software (GraphPad Prism8) was used for analysis, data fitting, and EC50 value calculation. […] The same method was used to detect the binding of the chimeric antibodies to endogenous CD22-negative cell MoLT4 cells (purchased from ATCC, CRL-1582) and CHO-K1 cells.
HEK293T-monkey CD22 cells were subjected to FACS detection and data analysis according to the method in Example 5.2.

Row | EC50 [nM] | Maximum mean fluorescence intensity [MFI] | Binder
1 | 0.62 | 16300 | F1.192.1 (antibody, human IgG1, kappa, V domains shown, human-murine chimeric IgG1 kappa) VH: AVQLQQSGVELVRPGASVKLSCTGSDFNIKEDYIHWVKQRPEQGLEWIGWIDPENGDTEYASKFQGKATITADTSSNTAYLQLSSLTSEDTAVYYCATYGSLDYWGQGTTLTVSS VL: DIKMTQSPSSMYAFLGERVTITCKASQGINSFLTWFQQKPGKSPKTLIYRANRLVDGVPSRFSGSGSGQDYSLTISSLEYEDVGIYYCLQYDEFPRTFGGGTKLEIKR
2 | 0.47 | 19000 | F1.172.13 (antibody, human IgG1, kappa, V domains shown, human-murine chimeric IgG1 kappa) VH: QVTLKESGPGILQSSQTLSLTCSFSGFSLSTSGMGVSWIRQPSGKGLEWLAHIYWDDDKRYNPSLKSRLTISKDTSRNQVFLKITSVDTADTATYYCARAPPPNWDEYYFDYWGQGTTLTVSS VL: DIQMTQSPASLSASVGETVTITCRASGNIHNSLAWYQQKQGKSPQLLVHNAKTLADGVPSRFSGSGSGTQYSLKINSLQPEDFGSYYCQHFWSTPPFGGGTKLEIKR
3 |  | 124 | F1.245.2 (antibody, human IgG1, kappa, V domains shown, human-murine chimeric IgG1 kappa) VH: EVQLQQSGAELVKPGASVKLSCTGSGFNIKDYYIHWVKQRTEQGLEWMGRIDPEDGETEYAPKFQDEATITSDTSSNTAYLQLSSLTYEDTAVYYCAREAAGYFYRGSSYGYFDVWGTGTTVTVSS VL: DFQMTQTTSFLSASLGDRVTISCSASQDISNYLNWYQQKPDGTVKLLIYYTSSLHSGVPSRFSGSGSGTDYSLTISNLEPEDIATYYCQQYSMLPYTFGGGTKLEMER
4 |  | 147 | F1.257.3 (antibody, human IgG1, kappa, V domains shown, human-murine chimeric IgG1 kappa; VL name legible) VH: QVQLQQSGPELARPGASVKLSCKASGYTFTSYGISWVKQRTGQDLEWIGEIYPKLGTTYYNEKFKDKATLTTDRSSSTAYMALRSLTSEDSAVYFCACPHYYATRGGDYWGQGTTLTVSS VL: EIVLTQSPATLSVTPGDSVTFSCRASQSISNHLHWYQQKSHESPRLLIRYASQSISGIPSRFSGSGSGTDFTLSLSSVETEDFGVYFCQQSHSWPYTFGGGTKLEIAR
5 | 12.3 | 9250 | F1.231.15 (antibody, IgG1, V domains shown, human-murine chimeric IgG1 kappa) VH: QVQLQQPGAELVKPGASVKLSCKTSGYTFTIYWMQWVKQRPGRGLEWIGRIDPHSGDTHYNENFTTKVTLTVDETSNTAYMHLSGLTSEDSAVYYCARRDYSYYVLDYWGQGTSVTVSS VL: DVVLTQTPLSLPVSLGDQASISCRSSQSLVHINGDTYLHWYLQKPGQSPKLLIYTVFNRFSGVPDRFSGSGSGTDFTLKISRVEAEDLGAYFCSQSTHVPYTFGGGTKLEIKR
6 | 0.26 | 13900 | F1.216.2 (antibody, human IgG1, kappa, V domains shown, human-murine chimeric IgG1 kappa) VH: QVQLQQSGPEVVRPGASVKISCKASGYAFSSSWMNWMKQRPGKALEWIGRIYPGDGDTNYSGEFKVKATLTADKSSSTAYMQLSSLTSEDSAVYFCAREGSYYSNPWYFDYWGQGTTLTVSS VL: DVLVTQTPLSLPVSLGDQASISCRSSQSIVQSNGDTYLEWYLQKPGQSPKLLIYKVSNRFSGVPDRFSGSGSGTDFTLKISRVEAEDLGVYYCFQGSHVPFTFGSGTKLEIKR
7 | 4.32 | 16200 | F1.200.11 (antibody, human IgG1, kappa, V domains shown, human-murine chimeric IgG1 kappa) VH: QNQLVQSGPELKKPGETVKISCKASGYTFTTAGMQWVQKMPGKGFKWIGWINTLSGEPKYAEDFKGRFAFSLETSATTAYLQISNLKNEDTATYFCARAYYSNLYWYFDVWGTGTTVTVSS VL: DIVMTQSQKFMSTTVGDRVTITCKASQNVVTAVAWYQQKPGQSPKVLIYSASNRYSGVPDRFTGSGSGTDFTLTISNMHSEDLANYFCHQYSSYPFTFGSGTKLEIKR
8 | 1.15 | 15300 | F1.267.9 (antibody, human IgG1, kappa, V domains shown, human-murine chimeric IgG1 kappa; VL name legible) VH: EVQLQQSGPVLVKPGASVKMSCKASGYTFTDFYMNWAKQSHGKSLEWVGVINPYNGGINYNQKFKGKATLTVDKSSSTAYMEFNSLTSEDSAVYYCARRMEYHAMDYWGQGTSVTVSS VL: DIVLTQSPASLAVSLGQRATISCRASESVDNYGFDFIHWYQQKPGQPPKLLIYRASNLESGIPARFSGSGSRPDFTLTINPVETDDVATYYCQQSIKDPWTFGGGTKLEIKR
9 | 0.95 | 13600 | F1.120.15 (antibody, human IgG1, kappa, V domains shown, human-murine chimeric IgG1 kappa) VH: QVQLQQSGPELVKPGASVKISCKASGNAFSNSWMNWVKQRPGKGLEWIGRVYSEDGDTQYNGKFRDKATLTADRSTSTAYMQLSSLTSEDSAVYFCARWLIYYGTYGAMDYWGQGTSVTVSS VL: DIQMTQTTSSLSASLGDRVTISCRASQDINNYLNWYHQKPDGTVKLLIYFTSRPYSGVPSRFSGSGSGTDYSLTISNLEQEDIATYFCQQGNTLPWTFGGGTKLEIKR
10 | 41.1 | 4330 | F1.62.10 (antibody, human IgG1, kappa, V domains shown, human-murine chimeric IgG1 kappa) VH: QVQLQQSGPELVKPGASVKISCKASGYEFSSIWMNWVKQRPGEGLEWIGRIFPGDGEINYNEKFKGKATLTADRSSTTAYMQLSSLTSEDSAVYFCAGWRIYYGTYGAMDYWGQGTSVTVSS VL: DIQMTQITSSLSASLGDRVTISCRASQDIGNYLNWYQQKPDGTVKLLIYYTSRLHSGVPSRFSGSGSRTDYSLTISNLQQEDIATYFCQQGNTLPWTFGGGTKLEIKR
11 | 0.38 | 17200 | F1.17.1 (antibody, human IgG1, kappa, V domains shown, human-murine chimeric IgG1 kappa) VH: QVQLKESGPGLVAPSQSLSITCTVSGFSLSRYTVHWVRQPPGKGLEWLGMIWGGGSTDYNSALKSRLSISKDNSKSQVFLKMNSLQTDDTAMYYCARPHDFDAGGFAYWGQGTLVTVSA VL: QIVLTQSPAILSTSPGEKVTMTCSASSRVNYMYWYQQKPGSSPRLLIYDTSNLASGVPVRFSGSGSGTSYSLTISRMEAEDAATYYCQQWTSYPLTFGAGTKLELKR
12 |  | 531 | F1.60.9 (antibody, human IgG1, kappa, V domains shown, human-murine chimeric IgG1 kappa) VH: QVQLKESGPGLVAPSQSLSITCTVSGLSLNNYGVSWVRQPPGKGLEWLGVIWGDGSTNYHSALISRLSISKDNSKSQVFLKLNSLHTDDTATYYCAINWGDYWGQGTTLIVSS VL: DIKMTQSPSSMNASLGERVTITCKASQDINSYLSWFQQKPGKSPKILIYRANRLIDGVPSRFSGSGSGQDYSLTISSLEYEDMGIYYCLQYGVFPLTFGAGTKLELKR
13 | 2.22 | 9220 | F1.7.6 (antibody, human IgG1, kappa, V domains shown, human-murine chimeric IgG1 kappa; VL name legible) VH: EIQLQQSGPELVKPGTSVKVSCKASGYDFTRYNMYWVKQSHGKSLEWIGYIDPYNGDTRYNQKFKGKATLTVDKSSSTAYMHLNSLTSEDSAVYYCEAIYYDMEGYALDYWGQGTSVTVSS VL: DIVMSQSPSSLAVSVGEKVTMSCKSSQSLLYSNNQKNYLAWYQQKPGQSPKKLIYWASTRESGVPDRLTGSGSGTDFTLTISSVTAEDLAVYYCQQFYSYPWTFGGGTKLEIKR
14 | 0.31 | 19700 | F1.250.16 (antibody, human IgG1, kappa, V domains shown, human-murine chimeric IgG1 kappa; VL name legible) VH: QVQLQQSGAEQVKPGASVKMSCKASGYTFTTYPIEWMKQNHGESLDWIGNIHPYNDDTEYNEKFKGKATLTVEKSSNTVFLELSRLTSDDSAVYYCVRGDYYNSRYWYFDVWGTGTTVTVSS VL: DIVMTQSQKFMSTTVGDRVSITCKAGQNVRTAVAWYQQKPGQSPKLLIYSASTRYIGVPERFTGSGSGTDFTLTITNMQSEDLADYFCQQYSSFPLTFGTGTKLELKR
15 | 1.3 | 7530 | F1.105.11 (antibody, human IgG1, kappa, V domains shown, human-murine chimeric IgG1 kappa; VL name legible) VH: EVQLQQSGPVLVKPGASVKMSCKASGYTFSDYFMNWVKQSHGKSLEWIGIINSYSGGTSYNQKFKGKATLTVDKSSSTAYMELNSLTSEDSAVYYCARWMDYWGQGTSVTVSS VL: DVQITQSPSYLAASPGETITINCRTSESISKHLAWYQEKPGKTNKLLIYSGSTLQSGIPSRFSGSGSGTDFTLTISSLEPEDFAMYYCQQHNEYPWTFGGGTKLEIKR
16 | 0.79 | 16300 | F1.224.1 (antibody, human IgG1, kappa, V domains shown, human-murine chimeric IgG1 kappa; VL name legible) VH: EVLLHQSGPELVKPGASVKISCKASGYTFTDFNMDWVRQRHGQSLEWIGDVNPNNGGTIYNQKFKGKATLTVDKSSSTVYMDLRSLTSDDTAVYYCVRLGTSDYGEAWFISWGQGTVVTVSA VL: DIVLTQSPASLAVSLGQRATISCRASQSVSTPRYSFMHWYQQKPGQPPKLLIKYASNLESGFPARFTGSGSGTDFTLNIHPVEEEDTAAYYCQQSWAIPWTFGGGTKLEIKR
